# According to US20130129722A1:
# What was measured:
# [1] = molecular target: Dimeric Monkey Ang-2FD conjugated to human IgG1 (monkey (Macca fascicularis)); assay: SPR, human IgG1 antibody captured
# [2] = molecular target: Dimeric Mouse Ang-2FD conjugated to human IgG1 (mouse (Mus musculus)); assay: SPR, human IgG1 antibody captured
# [3] = molecular target: Dimeric Human Ang-2FD conjugated to human IgG1 (human); assay: SPR, human IgG1 antibody captured
# [4] = molecular target: Dimeric Monkey Ang-2FD conjugated to human IgG1 (monkey (Macca fascicularis)); assay: SPR, antibody captured, room temperature
# [5] = molecular target: Dimeric Human Ang-2FD conjugated to human IgG1 (human); assay: SPR, antibody captured, room temperature
# [6] = molecular target: Dimeric Monkey Ang-2FD conjugated to human IgG1 (monkey (Macca fascicularis)); assay: ELISA, 16.67 nM antibody, Ang-2FD-hFc binding to coated hTie-2-mFc
# [7] = molecular target: Dimeric Mouse Ang-2FD conjugated to human IgG1 (mouse (Mus musculus)); assay: as above
# [8] = molecular target: Dimeric Human Ang-2FD conjugated to human IgG1 (human); assay: as above
# [9] = molecular target: Dimeric Mouse Ang-2FD conjugated to human IgG1 (mouse (Mus musculus)); assay: SPR, antibody captured, room temperature
# [10] = molecular target: Human Ang-2FD-hFc (human); assay: ELISA; 16.67 nM antibody premixed with Ang-2FD-hFc, binding to coated hTie-2-mFc
# [11] = molecular target: Mouse Ang-2FD-hFc (mouse (Mus musculus)); assay: as above
# Chain of Mouse Ang-2FD-hFc (mouse (Mus musculus)) (chain, as listed by the source limits assumed): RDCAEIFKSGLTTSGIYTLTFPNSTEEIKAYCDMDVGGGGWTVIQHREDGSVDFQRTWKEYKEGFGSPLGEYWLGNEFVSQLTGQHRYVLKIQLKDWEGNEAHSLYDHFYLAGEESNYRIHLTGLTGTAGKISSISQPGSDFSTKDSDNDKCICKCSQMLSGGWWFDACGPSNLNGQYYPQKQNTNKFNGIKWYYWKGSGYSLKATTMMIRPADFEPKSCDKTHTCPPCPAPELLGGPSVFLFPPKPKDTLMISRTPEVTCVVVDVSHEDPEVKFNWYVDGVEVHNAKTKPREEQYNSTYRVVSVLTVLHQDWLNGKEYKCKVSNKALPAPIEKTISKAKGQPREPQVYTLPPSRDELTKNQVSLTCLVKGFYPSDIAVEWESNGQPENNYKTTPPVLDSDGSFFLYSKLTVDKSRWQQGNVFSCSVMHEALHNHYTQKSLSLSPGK
# Chain of Dimeric Monkey Ang-2FD conjugated to human IgG1 (monkey (Macca fascicularis)) (chain, as listed by the source limits assumed): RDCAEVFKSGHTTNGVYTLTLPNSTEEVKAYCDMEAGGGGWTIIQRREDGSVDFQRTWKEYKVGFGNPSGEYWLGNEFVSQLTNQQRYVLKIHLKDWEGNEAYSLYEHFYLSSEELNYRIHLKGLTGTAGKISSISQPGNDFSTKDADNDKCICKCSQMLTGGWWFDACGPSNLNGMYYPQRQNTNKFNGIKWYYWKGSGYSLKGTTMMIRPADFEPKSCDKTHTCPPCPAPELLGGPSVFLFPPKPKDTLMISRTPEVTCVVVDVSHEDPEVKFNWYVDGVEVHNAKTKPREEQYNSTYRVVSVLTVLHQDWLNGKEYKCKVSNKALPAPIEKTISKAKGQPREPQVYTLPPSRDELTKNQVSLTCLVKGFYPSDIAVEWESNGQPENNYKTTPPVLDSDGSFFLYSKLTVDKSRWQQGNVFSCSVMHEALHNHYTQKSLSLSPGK
# Chain of Dimeric Human Ang-2FD conjugated to human IgG1 (human) (chain, as listed by the source limits assumed): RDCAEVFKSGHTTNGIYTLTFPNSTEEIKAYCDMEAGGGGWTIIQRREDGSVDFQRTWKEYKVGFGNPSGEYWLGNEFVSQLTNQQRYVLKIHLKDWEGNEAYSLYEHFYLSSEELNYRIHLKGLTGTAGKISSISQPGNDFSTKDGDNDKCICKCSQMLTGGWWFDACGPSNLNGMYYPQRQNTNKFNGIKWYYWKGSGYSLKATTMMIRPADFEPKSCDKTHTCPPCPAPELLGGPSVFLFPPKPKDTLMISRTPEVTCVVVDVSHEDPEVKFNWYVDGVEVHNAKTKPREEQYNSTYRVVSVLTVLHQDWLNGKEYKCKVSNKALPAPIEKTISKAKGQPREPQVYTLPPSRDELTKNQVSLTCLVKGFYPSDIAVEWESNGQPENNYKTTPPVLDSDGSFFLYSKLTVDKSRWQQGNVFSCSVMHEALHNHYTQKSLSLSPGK
Binder,Kd [1],T1/2 [1],Kd [2],T1/2 [2],Kd [3],T1/2 [3],Kd [4],T1/2 [4],Kd [5],T1/2 [5],Percent Blocking of Ang-2FD Binding to Tie-2 [6],Percent Blocking of Ang-2FD Binding to Tie-2 [7],Percent Blocking of Ang-2FD Binding to Tie-2 [8],Kd [9],T1/2 [9],Percent Blocking of Ang-2FD Binding to Tie-2 [10],Percent Blocking of Ang-2FD Binding to Tie-2 [11]
"H1H743N (antibody, V domains shown) VH: EVQLLESGGGLVQPGGSLRLSCAASGFTFRKYAMSWVRQAPGKGLEWVSVISVSGGNTYYADSVKGRFTISRDNSKNTLYLQLNSLRAEDTAVYYCAKDLTDIVLMVYVDYWGQGTLVTVSS VL: DIQMTQSPSSVSASVGDRVTITCRASQDIDRWLAWYQQKPGKAPKLLIYAASSLQSGVPSRFSGSGSGTDFTLTISTLQPEDFATYYCQQANSLPFTFGGGTKVEIK",0.0965 nM,780 min,0.124 nM,233 min,0.0882 nM,254 min,–,–,–,–,–,–,–,–,–,–,–
"H1H693P (antibody, human IgG1, V domains shown) VH: EVQLVESGGGLVQPGESLRLSCAASGFTFSSYAMSWVRQGPGKGLEWVSSISGSGGTTYYADSVEGRFTISRDNSKNTLYLHMNSLRAEDTAVYYCAKDFLDYSTYLAFDLWGQGTMVTVSS VL: DIQMTQSPSSVSASVGDRVTITCRASQGISSWLAWYQQKPGKAPKLLIYAASSLQSGVPSRFSGSGSGTDFTLTISSLQPEDFATYYCQQANSFPRTFGQGTKVEIK",1.17 nM,17.6 min,0.446 nM,63.7 min,0.5 nM,37.1 min,–,–,–,–,–,–,–,–,–,73.9%,63.6%
"H1H730N (antibody, V domains shown) VH: EVQLVESGGGLVQPGGSLRLSCAASGFAFRSYWMTWVRQAPGKGLEWVANIQQDGNDKYYVDSVKGRFTISRDNAKNSLYLQMNSLRAEDTAVYYCARDTGIAEAGPFDYWGQGTLVTVSS VL: DIQMTQSPSTLSASVGDRVSITCRASQTIISWLAWYQQKPGKAPRLLIYKASSLESGVPSRFSGSGSGTEFTLTINSLQPDDFATYYCQQYNRYWTFGQGTKVEIK",3.4 nM,87 min,0.0971 nM,90 min,0.234 nM,62 min,–,–,–,–,–,–,–,–,–,–,–
"H1H728N (antibody, V domains shown) VH: EVQLVESGGDLVQPGGSLRLSCTASGFTFSKYWMTWVRQAPGRGLEWVANIKEDGNEKYFLDSVKGRFTISRDNAKDLLFLQMNSLRGEDTAVYYCVRDRGIEVAGPFDYWGQGTLVTVSS VL: DIQMTQSPSTLSASVGDRVTVTCRASQTIINWLAWYQQKPGKAPKLLISKASSLESGVPSRFSGSGSGTEFTLTISSLQPDDFATYYCQQYNRYWTFGQGTMVEIK",2 nM,77 min,5.76 nM,20 min,0.162 nM,81 min,–,–,–,–,–,–,–,–,–,–,–
"H1H732N (antibody, V domains shown) VH: EVQLVESGGGLVRPGGSLRLSCAASGFTFTNAWMSWVRQAPGKGLEWIGQIKSKTDGGTIDYAAPVKGRFTVSRDDSENTLFLQMNSLKTEDTAVYYCAGNWNYVDFDYWGQGTLVTVSS VL: DIQMTQSPSSLSASVGDRVTITCRASQDIRNDLGWYQQKPGKAPKRLIYAASSLQGGVPSRFSGSGSGTEFTLTISSLQPEDFATYYCLQHNSYPFTFGPGTKVDIK",0.439 nM,118 min,0.529 nM,51 min,0.386 nM,57 min,–,–,–,–,–,–,–,–,–,–,–
"H1H742N (antibody, V domains shown) VH: DVQLLESGGDLVQPGGSLRLSCEASGFTFRNYVMIWVRQAPGKGLEWVSGISNSGGTTHYTDSVKGRFTISRDNSKNTLYLQINSLRAEDTAVYYCAKGYLDTSLIEGNWFDPWGQGTLVTVSS VL: NIVMTQSPLSLPVTPGEPASISCRSSQSLLHSNGFNYLNWFLQKPGQSPQLLIYLGSNRASGVPDKFSGSGSGTDFTLNINRVEAEDVGIYFCMQTLQTPLTFGGGTKVEIK",0.683 nM,93 min,0.276 nM,58 min,0.186 nM,65 min,–,–,–,–,–,–,–,–,–,–,–

# Other lines, results leading:
Kd [1],T1/2 [1],Kd [2],T1/2 [2],Kd [3],T1/2 [3],Kd [4],T1/2 [4],Kd [5],T1/2 [5],Percent Blocking of Ang-2FD Binding to Tie-2 [6],Percent Blocking of Ang-2FD Binding to Tie-2 [7],Percent Blocking of Ang-2FD Binding to Tie-2 [8],Kd [9],T1/2 [9],Percent Blocking of Ang-2FD Binding to Tie-2 [10],Percent Blocking of Ang-2FD Binding to Tie-2 [11],Binder
0.199 nM,244 min,0.218 nM,121 min,0.164 nM,127 min,–,–,–,–,–,–,–,–,–,–,–,"H1H750N (antibody, V domains shown) VH: QVKLVESGGGVVQPGRSLRVSCAASGFTFSSYGMHWVRQAPGKGLEWLAIIWYDGDNKYYSDSVKGRFTISRDNSKNTLYLQMNSLRAEDTAEYYCVRDASIASRFLDYWGQGTLVTVSS VL: DIQMTQSPSSLSASIGDRVTITCRATQDINNYLAWFQQKPGKAPKSLIYATSNLQSGVPSKFSGSGSGTDYTLTISSLQPEDFSTYYCQQYHSYPLTFGGGTKVEIK"
–,–,–,–,–,–,1.47 nM,23 min,0.362 nM,32.2 min,97.4%,53.7%,99.4%,–,–,–,–,"H2M750N (antibody, V domains shown) VH: QVKLVESGGGVVQPGRSLRVSCAASGFTFSSYGMHWVRQAPGKGLEWLAIIWYDGDNKYYSDSVKGRFTISRDNSKNTLYLQMNSLRAEDTAEYYCVRDASIASRFLDYWGQGTLVTVSS VL: DIQMTQSPSSLSASIGDRVTITCRATQDINNYLAWFQQKPGKAPKSLIYATSNLQSGVPSKFSGSGSGTDYTLTISSLQPEDFSTYYCQQYHSYPLTFGGGTKVEIK"
–,–,–,–,–,–,0.234 nM,169 min,0.154 nM,167 min,95.1%,98.4%,99.6%,0.882 nM,195 min,–,–,"H2M743N (antibody, V domains shown) VH: EVQLLESGGGLVQPGGSLRLSCAASGFTFRKYAMSWVRQAPGKGLEWVSVISVSGGNTYYADSVKGRFTISRDNSKNTLYLQLNSLRAEDTAVYYCAKDLTDIVLMVYVDYWGQGTLVTVSS VL: DIQMTQSPSSVSASVGDRVTITCRASQDIDRWLAWYQQKPGKAPKLLIYAASSLQSGVPSRFSGSGSGTDFTLTISTLQPEDFATYYCQQANSLPFTFGGGTKVEIK"
–,–,–,–,–,–,1.58 nM,69.5 min,0.137 nM,58.4 min,97.1%,83.9%,98.5%,5.65 nM,9.9 min,–,–,"H1M728N (antibody, V domains shown) VH: EVQLVESGGDLVQPGGSLRLSCTASGFTFSKYWMTWVRQAPGRGLEWVANIKEDGNEKYFLDSVKGRFTISRDNAKDLLFLQMNSLRGEDTAVYYCVRDRGIEVAGPFDYWGQGTLVTVSS VL: DIQMTQSPSTLSASVGDRVTVTCRASQTIINWLAWYQQKPGKAPKLLISKASSLESGVPSRFSGSGSGTEFTLTISSLQPDDFATYYCQQYNRYWTFGQGTMVEIK"
–,–,–,–,–,–,0.842 nM,36.6 min,0.21 nM,47 min,97.3%,55%,98.9%,–,–,–,–,"H2M730N (antibody, V domains shown) VH: EVQLVESGGGLVQPGGSLRLSCAASGFAFRSYWMTWVRQAPGKGLEWVANIQQDGNDKYYVDSVKGRFTISRDNAKNSLYLQMNSLRAEDTAVYYCARDTGIAEAGPFDYWGQGTLVTVSS VL: DIQMTQSPSTLSASVGDRVSITCRASQTIISWLAWYQQKPGKAPRLLIYKASSLESGVPSRFSGSGSGTEFTLTINSLQPDDFATYYCQQYNRYWTFGQGTKVEIK"
–,–,–,–,–,–,0.73 nM,25.7 min,0.179 nM,42.7 min,95.2%,96.6%,99.5%,0.694 nM,16 min,–,–,"H1M724N (antibody, V domains shown) VH: QVQLVESGGGVVQPGRSLRLSCAASGFTLSNYGMHWVRQAPGKGLEWVAVIWHDGSNTYYADSVKGRFTISRDNSKNTLYLQMNSLRAEDTAVYYCTREGLDFWSGYYPNWFDPWGQGTLVTVSS VL: DIQMTQSPSSLSASVGDRVTITCRASQGIRNDLGWYQQKPGKAPKRLIYAASNLQGGVPSRFSGSGSGTEFTLTISSLQPEDFAAYYCLQHNIYPLTFGGGTKVEIK"
–,–,–,–,–,–,7.33 nM,24.1 min,0.484 nM,35.5 min,95.8%,90.9%,97.7%,1.7 nM,21.4 min,–,–,"H1M732N (antibody, V domains shown) VH: EVQLVESGGGLVRPGGSLRLSCAASGFTFTNAWMSWVRQAPGKGLEWIGQIKSKTDGGTIDYAAPVKGRFTVSRDDSENTLFLQMNSLKTEDTAVYYCAGNWNYVDFDYWGQGTLVTVSS VL: DIQMTQSPSSLSASVGDRVTITCRASQDIRNDLGWYQQKPGKAPKRLIYAASSLQGGVPSRFSGSGSGTEFTLTISSLQPEDFATYYCLQHNSYPFTFGPGTKVDIK"
–,–,–,–,–,–,6.17 nM,28.5 min,0.295 nM,38 min,94.1%,98.6%,99.6%,0.61 nM,30.8 min,–,–,"H2M742N (antibody, V domains shown) VH: DVQLLESGGDLVQPGGSLRLSCEASGFTFRNYVMIWVRQAPGKGLEWVSGISNSGGTTHYTDSVKGRFTISRDNSKNTLYLQINSLRAEDTAVYYCAKGYLDTSLIEGNWFDPWGQGTLVTVSS VL: NIVMTQSPLSLPVTPGEPASISCRSSQSLLHSNGFNYLNWFLQKPGQSPQLLIYLGSNRASGVPDKFSGSGSGTDFTLNINRVEAEDVGIYFCMQTLQTPLTFGGGTKVEIK"
